Source: patent publication US20250382381A1

Target: mouse ART2 (ART2.2) on T cells (mouse) (UniProt O35975)
Test: cell-based or functional assay

Sequence of mouse ART2 (ART2.2) on T cells (mouse) (O35975 21-260): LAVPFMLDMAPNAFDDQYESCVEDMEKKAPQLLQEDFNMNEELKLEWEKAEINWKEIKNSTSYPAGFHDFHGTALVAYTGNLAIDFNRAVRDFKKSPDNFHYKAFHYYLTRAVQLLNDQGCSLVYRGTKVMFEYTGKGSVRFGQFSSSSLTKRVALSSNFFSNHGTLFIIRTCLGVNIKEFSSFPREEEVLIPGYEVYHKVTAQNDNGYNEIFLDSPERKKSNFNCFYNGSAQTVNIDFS

- ADP-ribosylation of CD4 T cells (eNAD staining, flow cytometry): 9.3%
- ADP-ribosylation of CD8 T cells (eNAD staining, flow cytometry): 12.9%
Substance: ART2-blocking nanobody (s+16a) (VHH)
